According to paper PMC6625990, “Structural underpinnings of Ric8A function as a G-protein α-subunit chaperone and guanine-nucleotide exchange factor” (Nature Communications, 2019):
Changes are numbered by the printed parent chain. Names may count otherwise.

Assays:
[1] = target: full-length Avi-tagged Gαt, P04695; assay: BLI (steady-state); details: chain shown with the change
[2] = target: full-length Avi-tagged Gαt, P04695; assay: BLI (steady-state binding curve); details: chain shown with the change; Avi-tagged Gαt coupled to a streptavidin biosensor; parent: 24 nM

full-length Avi-tagged Gαt, P04695, sequence (P04695 whole entry): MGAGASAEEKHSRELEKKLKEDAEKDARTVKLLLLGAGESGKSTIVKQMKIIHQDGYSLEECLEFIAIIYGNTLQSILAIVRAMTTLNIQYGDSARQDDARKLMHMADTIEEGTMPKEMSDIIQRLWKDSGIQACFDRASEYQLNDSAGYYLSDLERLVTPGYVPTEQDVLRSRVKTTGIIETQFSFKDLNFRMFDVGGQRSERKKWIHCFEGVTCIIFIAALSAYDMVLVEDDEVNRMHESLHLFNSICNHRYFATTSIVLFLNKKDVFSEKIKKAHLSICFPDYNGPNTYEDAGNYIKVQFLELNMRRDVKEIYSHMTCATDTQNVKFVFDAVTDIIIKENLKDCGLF

B1: bovine Ric8A1–492, Q5E9J8 F169R (protein)
chain: MEPRAVADALETGEEDVVMEALRAYNRENSQSFTFDDAQQEDRKRLAKLLVSVLEQGLPPSRRVIWLQSIRILSRDRSCLDSFTSRRSLQALACYAGISASQGSVPEPLNMDVVLESLKCLCNLVLSSPVAQALAAEAGLVVRLAERVGLCRQSSFPHDVQFFDLRLLRLLTALRTDVRQQLFQELQGVRLLTRALELTLGMTEGERHPELLPPQETERAMEILKVLFNITFDSIKREVDEEDAALYRHLGTLLRHCVMLAAAGDRTEELHGHAVNLLGNLPVKCLDVLLTLEPHEGSLEFLGVNMDVIRVLLSFMEKRLHQTHRLKESVAPVLSVLTECARMHRPARKFLKAQVLPPLRDVRTRPEVGELLRNKLVRLMTHLDTDVKRVAAEFLFVLCSESVPRFIKYTGYGNAAGLLAARGLMAGGRPEGQYSEDEDTDTDEYKEAKASINPVTGRVEEKPPNPMEGMTEEQKEHEAMKLVNMFDKLSRH
**Q.** Which results are given for B1?
**A.** Kd [1]: 1800 nM; Kd [2]: 1700 nM

B2: bovine Ric8A1–492, Q5E9J8 A173W (protein)
chain: B1 chain with R169F, A173W
**Q.** Which results are given for B2?
**A.** Kd [1]: > 10000 nM; Kd [2]: > 10000 nM
